Results: patent USRE50631 (VELOSBIO, dated 2025)

Key:
[1] = target: T1, human receptor tyrosine kinase like orphan receptor 1 (ROR1) (human, UniProt Q01973 30-937); assay: cell-based or functional assay
[2] = target: T1, human receptor tyrosine kinase like …; assay: binding to Jeko cells; column 'ADC-N Binding KD (nM)', method not described
[3] = target: T1, human receptor tyrosine kinase like …; assay: binding to Jeko cells; column 'ADC-O Binding KD (nM)', method not described
[4] = target: T1, human receptor tyrosine kinase like …; assay: flow cytometry on Jeko-1 cells (FIG. 3A)
[5] = target: T1, human receptor tyrosine kinase like …; assay: flow cytometry on Jeko-1 cells (FIG. 3B)

T1 sequence (Q01973 30-937): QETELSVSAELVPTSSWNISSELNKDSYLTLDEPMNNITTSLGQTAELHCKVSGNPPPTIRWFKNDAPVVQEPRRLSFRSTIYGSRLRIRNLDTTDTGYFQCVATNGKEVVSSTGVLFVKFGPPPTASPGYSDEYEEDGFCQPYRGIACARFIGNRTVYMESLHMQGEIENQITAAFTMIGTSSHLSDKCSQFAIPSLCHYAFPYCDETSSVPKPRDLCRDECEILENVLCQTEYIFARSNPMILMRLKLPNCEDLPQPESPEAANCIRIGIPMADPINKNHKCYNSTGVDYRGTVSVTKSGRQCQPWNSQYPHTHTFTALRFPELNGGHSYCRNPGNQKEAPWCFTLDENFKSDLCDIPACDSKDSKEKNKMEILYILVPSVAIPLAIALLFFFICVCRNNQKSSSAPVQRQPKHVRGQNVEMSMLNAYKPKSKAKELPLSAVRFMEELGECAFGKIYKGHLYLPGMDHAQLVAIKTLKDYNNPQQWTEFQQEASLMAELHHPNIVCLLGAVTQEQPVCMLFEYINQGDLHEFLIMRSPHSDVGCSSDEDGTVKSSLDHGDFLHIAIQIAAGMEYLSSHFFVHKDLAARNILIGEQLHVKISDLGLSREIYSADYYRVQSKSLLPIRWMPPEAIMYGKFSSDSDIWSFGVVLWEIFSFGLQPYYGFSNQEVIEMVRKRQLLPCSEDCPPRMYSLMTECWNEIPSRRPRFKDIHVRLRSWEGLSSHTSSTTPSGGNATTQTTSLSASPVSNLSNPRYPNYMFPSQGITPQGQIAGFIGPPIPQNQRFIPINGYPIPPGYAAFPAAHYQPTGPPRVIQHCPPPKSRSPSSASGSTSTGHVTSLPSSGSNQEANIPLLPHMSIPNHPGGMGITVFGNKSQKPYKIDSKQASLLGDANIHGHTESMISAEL

B1: ADC-C (antibody, human IgG1, kappa, V domains shown)
VH: QVQLQESGPGLVKPSQTLSLTCTVSGYAFTAYNIHWVRQAPGQGLEWMGSFDPYDGGSSYNQKFKDRLTISKDTSKNQVVLTMTNMDPVDTATYYCARGWYYFDYWGHGTLVTVSS
VL: DIVMTQTPLSLPVTPGEPASISCRASKSISKYLAWYQQKPGQAPRLLIYSGSTLQSGIPPRFSGSGYGTDFTLTINNIESEDAAYYFCQQHDESPYTFGEGTKVEIKR
modifications: MAL-VC-PAB-DM1 bonded via cysteine residues of the antibody (chain and positions not stated)
IC50, cell viability (CellTiter-Glo, 72 h), A2008 cells [1]: > 1000 nM | IC50, cell viability (CellTiter-Glo, 72 h), Bt549 cells [1]: > 1000 nM | IC50, cell viability (CellTiter-Glo, 72 h), DOHH2 cells [1]: > 1000 nM | IC50, cell viability (CellTiter-Glo, 72 h), HBL-1 cells [1]: > 1000 nM | IC50, cell viability (CellTiter-Glo, 72 h), HCC1187 cells [1]: > 1000 nM | IC50, cell viability (CellTiter-Glo, 72 h), JHOM1 cells [1]: > 1000 nM | IC50, cell viability (CellTiter-Glo, 72 h), MDA-MB-468 cells [1]: > 1000 nM | IC50, cell viability (CellTiter-Glo, 72 h), SKOvr3 cells [1]: > 1000 nM | IC50, cell viability (CellTiter-Glo, 72 h), TMD-8 cells [1]: > 1000 nM | IC50, cell viability (CellTiter-Glo, 72 h), TOV112D cells [1]: > 1000 nM

B2: ADC-N (antibody, human IgG1, kappa, V domains shown)
VH: QVQLQESGPGLVKPSQTLSLTCTVSGYAFTAYNIHWVRQAPGQGLEWMGSFDPYDGGSSYNQKFKDRLTISKDTSKNQVVLTMTNMDPVDTATYYCARGWYYFDYWGHGTLVTVSS
VL: DIVMTQTPLSLPVTPGEPASISCRASKSISKYLAWYQQKPGQAPRLLIYSGSTLQSGIPPRFSGSGYGTDFTLTINNIESEDAAYYFCQQHDESPYTFGEGTKVEIKR
modifications: MAL-PEG4-VC-PAB-DMEA-PNU-159682 bonded via cysteine residues of the antibody (chain and positions not stated)
notes: Antibody-drug conjugate of Ab1; also called Ab1-MAL-PEG4-VC-PAB-DMEA-PNU-159682
Kd [2]: 0.13 nM

B3: ADC-O (antibody, human IgG1, kappa, V domains shown)
VH: QVQLQESGPGLVKPSQTLSLTCTVSGYAFTAYNIHWVRQAPGQGLEWMGSFDPYDGGSSYNQKFKDRLTISKDTSKNQVVLTMTNMDPVDTATYYCARGWYYFDYWGHGTLVTVSS
VL: DIVMTQTPLSLPVTPGEPASISCRASKSISKYLAWYQQKPGQAPRLLIYSGSTLQSGIPPRFSGSGYGTDFTLTINNIESEDAAYYFCQQHDESPYTFGEGTKVEIKR
modifications: MAL-C2-Gly3-EDA-PNU-159682 bonded via cysteine residues of the antibody (chain and positions not stated)
notes: Antibody-drug conjugate of Ab1; also called Ab1-MAL-C2-Gly3-EDA-PNU-159682
Kd [3]: 0.12 nM

B4: 4A5 (antibody, V domains shown)
VH: EVKLVESGGGLVKPGGSLKLSCAASGFTFSSYAMSWVRQIPEKRLEWVASISRGGTTYYPDSVKGRFTISRDNVRNILYLQMSSLRSEDTAMYYCGRYDYDGYYAMDYWGQGTSVTVSS
VL: DIKMTQSPSSMYASLGERVTITCKASPDINSYLSWFQQKPGKSPKTLIYRANRLVDGVPSRFSGGGSGQDYSLTINSLEYEDMGIYYCLQYDEFPYTFGGGTKLEMK
notes: also called anti-ROR1 antibody 4A5
EC50 [4]: 0.121 µg/mL

B5: ADC-T (antibody, V domains shown)
VH: EVKLVESGGGLVKPGGSLKLSCAASGFTFSSYAMSWVRQIPEKRLEWVASISRGGTTYYPDSVKGRFTISRDNVRNILYLQMSSLRSEDTAMYYCGRYDYDGYYAMDYWGQGTSVTVSS
VL: DIKMTQSPSSMYASLGERVTITCKASPDINSYLSWFQQKPGKSPKTLIYRANRLVDGVPSRFSGGGSGQDYSLTINSLEYEDMGIYYCLQYDEFPYTFGGGTKLEMK
modifications: MAL-VC-PAB-MMAE bonded via cysteine residues of the antibody (positions not stated)
notes: Antibody-drug conjugate of 4A5; also called 4A5-MAL-VC-PAB-MMAE
EC50 [4]: 0.193 µg/mL

B6: D10 (antibody, V domains shown)
VH: QVQLKESGPGLVAPSQTLSITCTVSGFSLTSYGVHWVRQPPGKGLEWLGVIWAGGFTNYNSALKSRLSISKDNSKSQVLLKMTSLQTDDTAMYYCARRGSSYSMDYWGQGTSVIVSS
VL: EIVLSQSPAITAASLGQKVTITCSASSNVSYIHWYQQRSGTSPRPWIYEISKLASGVPVRFSGSGSGTSYSLTISSMEAEDAAIYYCQQWNYPLITFGSGTKLEIQ
notes: also called antibody D10
EC50 [5]: 0.25 µg/mL

B7: ADC-S (antibody, V domains shown)
VH: QVQLKESGPGLVAPSQTLSITCTVSGFSLTSYGVHWVRQPPGKGLEWLGVIWAGGFTNYNSALKSRLSISKDNSKSQVLLKMTSLQTDDTAMYYCARRGSSYSMDYWGQGTSVIVSS
VL: EIVLSQSPAITAASLGQKVTITCSASSNVSYIHWYQQRSGTSPRPWIYEISKLASGVPVRFSGSGSGTSYSLTISSMEAEDAAIYYCQQWNYPLITFGSGTKLEIQ
modifications: MAL-VC-PAB-MMAE bonded via cysteine residues of the antibody (positions not stated)
notes: Antibody-drug conjugate of D10; also called D10-MAL-VC-PAB-MMAE
EC50 [5]: 0.15 µg/mL
